Laboratory results reported in article PMC4364678, “Biosynthesis of the Diterpenoid Lycosantalonol via Nerylneryl Diphosphate in Solanum lycopersicum” (PLoS ONE, 2015).

Tests used:
[1] = substrate: C=C(C)CCO[P@@](=O)(O)OP(=O)(O)O; assay: purified protein; details: 5-80 μM 14C-IPP at 150 μM zzFPP; labelled compound
[2] = substrate: CC(C)=CCC/C(C)=C\CC/C(C)=C\COP(=O)(O)OP(=O)(O)O; assay: purified protein; type: biochemical, Solanum lycopersicum; details: 10-80 μM zzFPP at 50 μM 14C-IPP

B1: CPT2 (Solanum lycopersicum) (protein)
chain: MSDRGLSKISCSLSLQTEKLRYDNDDNDDLELHEELIPKHIALIMDGNRRWAKAKGLEVYEGHKLIIPKLKEICDISSKLGIQVITAFAFSTENWKRSKEEVDFLMQLFEEFFNEFLRFGVRVSVIGCKSNLPMTLQKCIALTEETTKGNKGLHLVIALNYGGYYDILQATKSIVNKAMNGLLDVEDINKNLFEQELESKCPNPDLLIRTGGEQRVSNFLLWQLAYTEFYFTNTLFPDFGEKDLKKAILNFQQRHRRFGGHTY
notes: N-terminal putative transit peptide (51 residues, 153 nt) deleted; vector pEXP5-CT/TOPO; E. coli BL21 (DE3)
Km [1]: 3.8 ± 0.3 µM
kcat [1]: 0.0026 s⁻¹
kcat/Km [1]: 680 M⁻¹ s⁻¹
Km [2]: 22.9 ± 1.1 µM
kcat [2]: 0.0026 ± 0.0001 s⁻¹
kcat/Km [2]: 110 ± 10 M⁻¹ s⁻¹
